Source: patent publication US8710195B2, “Fluorescent proteins” (JNC Corporation, priority 2003, dated 2014)

Key:
[1] = Substrate specificity, chemiluminescence with h-CTZ; type: biochemical; settings: compared with coelenterazine
Experimental: bFP-aq, e-bFP-aq, and h-bFP-aq (0.25 μg) prepared in Example 2 were individually dissolved in 100 μl of 50 mM Tris-HCl (pH 7.6) containing 5 mM dithiothreitol (DTT) and 1 μg/μl coelenterazine and its analog were added to each solution. Each chemiluminescence in the steady reaction state (after 10 min) was measured with a luminometer (AB-2200; manufactured by Atto Co., Ltd.).

[2] = Recoverability of fluorescence-generating ability after heating at 90° C.; type: physicochemical; settings: heated at 90° C. for 3 min
Experimental: The thermal stability of bFP-aq prepared in Examples 2 was compared with that of gFP-aq prepared Example 3. The solution containing bFP-aq or gFP-aq with a protein concentration of 0.26 mg/ml was heated at 90° C. for 3 min and allowed to stand at 24° C. Subsequently, each fluorescence generation intensity was measured with a spectrofluorometer.

[3] = when calcium ions bind; cited from earlier work

Molecule: O=c1c(Cc2ccccc2)nc2c(Cc3ccccc3)[nH]c(-c3ccc(O)cc3)cn1-2 [h-coelenterazine]
- Quality as luminescent substrate of the bFPs [1]: serves as a luminescent substrate better than coelenterazine

Molecule: aequorin
- Ability to emit light due to the addition of calcium ions after heat treatment [2]: completely been lost
- maximum wave length of blue light emission [3]: 465-470 nm
